Consider three substances from article PMC2955838.

The target in test [1] is vascular endothelial growth factor (VEGF) dimer (UniProt P15692). The experiment in a line: split reporter.
The target in test [2] is Flt-1 (Homo sapiens) (UniProt P17948). The note with it: cited from earlier work.

The Kd is a measure of binding affinity in units of concentration.

Sequence of VEGF (P15692 whole entry): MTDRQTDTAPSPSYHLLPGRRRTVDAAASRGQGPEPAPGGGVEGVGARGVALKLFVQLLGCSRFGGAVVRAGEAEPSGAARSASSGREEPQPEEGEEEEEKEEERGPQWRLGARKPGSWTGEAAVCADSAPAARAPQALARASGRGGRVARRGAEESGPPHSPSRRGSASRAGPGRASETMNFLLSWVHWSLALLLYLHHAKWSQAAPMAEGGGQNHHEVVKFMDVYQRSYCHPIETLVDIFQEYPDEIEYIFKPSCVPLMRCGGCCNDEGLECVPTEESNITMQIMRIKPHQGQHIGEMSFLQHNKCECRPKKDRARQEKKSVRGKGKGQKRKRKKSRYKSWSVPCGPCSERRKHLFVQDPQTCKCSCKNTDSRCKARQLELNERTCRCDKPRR
Sequence of Flt-1 domain 2 fused to the N-terminal half of firefly luciferase (domain or fragment) (P17948 27-1338): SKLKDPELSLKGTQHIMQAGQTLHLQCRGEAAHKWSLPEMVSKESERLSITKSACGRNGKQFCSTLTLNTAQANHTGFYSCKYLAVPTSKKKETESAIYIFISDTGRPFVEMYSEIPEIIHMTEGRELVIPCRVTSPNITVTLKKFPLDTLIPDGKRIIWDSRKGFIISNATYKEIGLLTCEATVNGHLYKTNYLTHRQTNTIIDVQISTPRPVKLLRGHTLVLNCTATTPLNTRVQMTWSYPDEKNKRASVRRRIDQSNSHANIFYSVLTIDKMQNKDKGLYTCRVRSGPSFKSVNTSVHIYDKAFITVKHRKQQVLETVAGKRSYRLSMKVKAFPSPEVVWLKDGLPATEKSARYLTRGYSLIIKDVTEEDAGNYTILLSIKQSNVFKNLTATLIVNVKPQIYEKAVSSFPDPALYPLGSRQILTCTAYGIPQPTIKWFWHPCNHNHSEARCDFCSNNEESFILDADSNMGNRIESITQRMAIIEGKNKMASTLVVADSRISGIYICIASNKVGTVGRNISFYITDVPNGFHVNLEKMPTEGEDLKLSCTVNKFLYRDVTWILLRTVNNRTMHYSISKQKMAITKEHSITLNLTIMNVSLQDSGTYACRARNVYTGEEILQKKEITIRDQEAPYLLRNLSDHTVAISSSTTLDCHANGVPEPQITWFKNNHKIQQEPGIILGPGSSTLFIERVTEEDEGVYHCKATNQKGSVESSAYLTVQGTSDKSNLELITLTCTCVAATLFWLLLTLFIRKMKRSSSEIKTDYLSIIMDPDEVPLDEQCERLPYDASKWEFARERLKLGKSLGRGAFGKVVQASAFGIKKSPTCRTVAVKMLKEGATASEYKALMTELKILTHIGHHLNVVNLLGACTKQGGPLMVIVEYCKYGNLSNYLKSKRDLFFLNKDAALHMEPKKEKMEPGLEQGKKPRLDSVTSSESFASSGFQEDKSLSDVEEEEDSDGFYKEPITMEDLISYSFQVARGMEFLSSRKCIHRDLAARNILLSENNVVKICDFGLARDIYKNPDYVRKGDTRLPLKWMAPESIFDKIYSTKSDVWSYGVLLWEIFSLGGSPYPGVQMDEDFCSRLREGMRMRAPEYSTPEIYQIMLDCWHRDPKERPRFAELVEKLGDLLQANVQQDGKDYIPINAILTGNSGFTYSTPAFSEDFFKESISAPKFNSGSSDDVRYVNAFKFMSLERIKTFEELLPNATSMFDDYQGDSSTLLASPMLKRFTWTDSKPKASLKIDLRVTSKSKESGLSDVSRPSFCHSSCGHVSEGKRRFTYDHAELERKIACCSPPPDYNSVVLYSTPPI
Sequence of Flt-1 (Homo sapiens) (P17948 27-1338): as above
Sequence of Flt-1 domain 2 fused to the C-terminal half of firefly luciferase (domain or fragment) (P17948 27-1338): as above

Take “Flt-1 domain 2 fused to the N-terminal half of firefly luciferase (domain or fragment)”: in test [1], the fold increase in luminescence was > 13 fold.
VEGF (from UniProt P15692): the equilibrium dissociation constant (Kd) in test [2] was 1.4 nM.
On to “Flt-1 domain 2 fused to the C-terminal half of firefly luciferase (domain or fragment)”, for which the fold increase in luminescence in test [1] is > 13 fold.
